Results reported in patent publication US20190322750A1 (Y BIOLOGICS, published 2019).
Numbering of substitutions follows the chain as printed.

T1: ITGA6
T1 construct: unrelated antigen column; all antibodies give 0.5 to 0.6
T1 sequence (P23229 whole entry, species assumed, looked up): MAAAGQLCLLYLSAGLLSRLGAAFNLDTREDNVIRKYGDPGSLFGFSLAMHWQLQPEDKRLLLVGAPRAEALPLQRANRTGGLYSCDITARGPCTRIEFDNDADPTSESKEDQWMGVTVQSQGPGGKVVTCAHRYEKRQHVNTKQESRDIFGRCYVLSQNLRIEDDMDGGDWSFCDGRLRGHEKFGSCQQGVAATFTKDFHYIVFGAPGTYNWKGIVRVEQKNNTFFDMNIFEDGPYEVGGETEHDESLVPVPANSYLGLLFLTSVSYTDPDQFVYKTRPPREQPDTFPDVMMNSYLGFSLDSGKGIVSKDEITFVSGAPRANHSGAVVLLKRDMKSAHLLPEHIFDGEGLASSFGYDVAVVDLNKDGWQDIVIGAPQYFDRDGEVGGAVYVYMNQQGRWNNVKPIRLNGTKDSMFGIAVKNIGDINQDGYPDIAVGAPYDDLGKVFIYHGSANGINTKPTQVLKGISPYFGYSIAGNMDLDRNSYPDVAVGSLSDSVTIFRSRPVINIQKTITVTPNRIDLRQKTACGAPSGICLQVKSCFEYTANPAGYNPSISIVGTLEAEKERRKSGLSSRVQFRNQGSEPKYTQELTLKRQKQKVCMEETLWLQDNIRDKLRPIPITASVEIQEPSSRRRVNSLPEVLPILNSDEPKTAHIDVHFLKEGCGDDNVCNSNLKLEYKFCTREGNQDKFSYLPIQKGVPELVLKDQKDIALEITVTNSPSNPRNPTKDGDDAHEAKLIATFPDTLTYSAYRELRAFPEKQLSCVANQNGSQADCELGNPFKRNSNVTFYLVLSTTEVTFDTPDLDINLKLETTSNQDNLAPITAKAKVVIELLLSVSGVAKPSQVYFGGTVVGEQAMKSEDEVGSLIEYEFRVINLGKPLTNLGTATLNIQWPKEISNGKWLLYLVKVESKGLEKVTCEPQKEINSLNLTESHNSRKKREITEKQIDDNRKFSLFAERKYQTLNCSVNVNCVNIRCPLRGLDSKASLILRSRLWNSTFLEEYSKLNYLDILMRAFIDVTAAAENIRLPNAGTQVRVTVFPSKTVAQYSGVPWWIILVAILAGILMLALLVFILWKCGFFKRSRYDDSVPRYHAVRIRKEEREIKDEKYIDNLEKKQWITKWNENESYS

B1: PDL1-27F8 (antibody, V domains shown)
VH: QVQLVQSGAEVKKPGSSVKVSCKASGGTFSSSAFSWVRQAPGHGLEWMGRIIPMFDMTDYAQRFQGRLTIIADESSSTAYMELSSLRSEDTAVYYCARSNPHYMDVWGQGTTVTVSS
VL: QLVLTQPPSVSGAPGQRVTISCTGSNSDIGAGHDVHWYQQIPGTAPKVLIYGNTDRPSGVPDRFSGSKSGTSASLAITGLQAEDEADYYCQSYDSSLSGYVFGTGTKVTVL
notes: Only FR/CDR pieces are tied to the clone
B2: PD-L1-16E12 (WT/Lambda) (antibody, V domains shown)
VH: QMQLVQSGAEVKKPGSSVKVSCKASGGTFSSYAISWVRQAPGQGLEWMGRIIPILGIANYAQKFQGRVTITADKSTSTAYMELSSLRSEDTAVYYCAKPRDGYNLVAFDIWGQGTMVTVSS
VL: QLVLTQPPSVSGAPGQTVTISCTGSSSNIGAGYDVHWYQQLPGTAPKLLIYGNNNRPSGVPDRFSGSKSGALASLAITGLQAEDGADYHCQSYDNSLSAHAVFGTGTKVTVL
B3: PDL1-31B7 (antibody, V domains shown)
VH: B2 VH with M2V, Q6E, K98R, P99A, R100S, D101S, N104S, L105V, V106G
VL: QLVLTQPPSVSAPPGQKVTISCSGSSSNIGNNYVSWYQQLPGTAPKLLIYDNNERPSGIPDRFSASKSGTSATLGISGLQTGDEADYYCGTWDSSLSAGVFGGGTKLTVL
notes: as for B1
B4: PD-L1-16E12 (WT/kappa) (antibody, V domains shown)
VH: B2 VH
VL: B2 VL
notes: also called PD-L1-16E12-Kappa
B5: PD-L1-16E12-LS-4F5 (Lambda) (antibody, V domains shown)
VH: B2 VH
VL: QLVLTQPPSVSGAPGQRVTISCTGSSSNIGAGYDVHWYQQLPGAAPKLLIYGDINRPSGVPDRFSGSKSGISASLAITGLQAEDEADYYCQSYDSSLSGGVFGGGTKLTVL
B6: PDL1-23E5 (antibody, V domains shown)
VH: QVQLVQSGAEVVKPGSSVKVSCKASGDTFSRYAISWVRQAPGQAPEWMGRIIPVLGAANYARKFQDRVTITADISTTTAFMELTSLRSEDTAVYYCARSLSGYSLGAFDVWGPGTLVTVSS
VL: QLVLTQPPSVSGAPGQSVSISCIGSNSNIGTPYDVHWYQQIPGEAPKLLIYGSTNRPSGVPDRFSGSRSGSSASLDITGLQADDEAYYYCQSYDRSLGVSDVVFGGGTKLTVL
notes: as for B1
B7: PDL1-11A7 (antibody, V domains shown)
VH: QVQLVQSGAEVKKPGASVKVSCKVSGYTLTELSMHWVRQAPGKGLEWMGGFDPEDGETIYAQKFQGRVTMTEDTSTDTAYMELSSLRSEDTAVYYCARDPWGGYYGMDVWGQGTTVTVSS
VL: DIQMTQSPSSVSASVGDRVTINCRASQGIRTWLAWYQQKPGKAPKLLIYAASNLQSGVPSRFSGSGSGTDFTLTIASLQPEDFATYYCQQANSFPLTFGGGTKVEIK
notes: as for B1

Experiments:
M5 = assay: ELISA on coated antigen, column M5
Protocol: (§1) An antigen PD-L1 wild type (WT) or several mutants were coated at a density of 100 ng/well on a 96-well immunoplate at 4° C. for 16 hours and the wells were blocked with 4% skim milk dissolved in PBS. Each well was washed with 0.2 ml of PBS/T, and then a single clone scFv-phage (each […]) cultured for 16 hours was added in a dose of 100 μl to each well and reacted at room temperature for 2 hours. Again, each well was washed 4 times with 0.2 ml of PBS/T, and then the second antibody, anti-Fab, was diluted to 1/2000 and reacted at room temperature for 1 hour. After washing with 0.2 ml of PBS/T, color development was performed and absorbance was measured at 490 nm.

mouse PD-L1 protein = mouse PD-L1 protein (mouse, UniProt Q9EP73 19-238, limits assumed); assay: ELISA on coated antigen, column mPD-L1
Protocol: as §1

M4 = assay: ELISA on coated antigen, column M4
Protocol: as §1

M6 = assay: ELISA on coated antigen, column M6
Protocol: as §1

ITGA6 = biological target: T1, ITGA6; assay: ELISA on coated antigen, column ITGA6
M8 = assay: ELISA on coated antigen, column M8
Protocol: as §1

M3 = assay: ELISA on coated antigen, column M3
M2 = assay: ELISA on coated antigen, column M2
Protocol: as §1

WT = biological target: T2, WT (human, UniProt Q9NZQ7); assay: ELISA on coated antigen, column WT
T2 construct: recombinant; also called hPD-L1; antigen PD-L1 wild type (WT)
Protocol: as §1

M1 = assay: ELISA on coated antigen, column M1
Protocol: as §1

[1] = biological target: T3, PD-L1 on CHO cell line highly expressing PD-L1 (PD-1/PD-L1 blockade bioassay kit, promega J1250) (UniProt Q9NZQ7 19-290, limits assumed); assay: cell-based or functional assay
M7 = assay: ELISA on coated antigen, column M7
PD-L1-His = biological target: T4, PD-L1-His (human, UniProt Q9NZQ7); assay: competition ELISA: PD-L1-His pre-incubated with the antibody, then on coated PD-1-Fc (blocked ligand); % of max absorbance
T4 construct: recombinant, His-tagged; also called human PD-L1-His (S1479, Y-Biologics)

[2] = biological target: T3, PD-L1 on CHO cell line highly …; assay: cell-based or functional assay; remark: listed apart in the source
PD-L1-hFc = biological target: T5, PD-L1-hFc (human, UniProt Q9NZQ7 19-238); assay: kinetics on PD-L1-hFc (legend paragraph 40; text names ProteOn XPR36, the sheet's sensorgrams have a nm axis)
T5 construct: extracellular domain; Made in HEK-293F cells, protein A purified; also called PD-L1 antigen; PD-L1 protein

[3] = biological target: T6, human PD-L1 over-expressed on HEK293E cells (human, UniProt Q9NZQ7 19-290); assay: flow cytometry on HEK293E/PD-L1 cells, FITC anti-human IgG, serial dilutions; fit table
T6 construct: whole, on cells; also called human PD-L1 (NM_014143.2)
Protocol: 0.5 to 1×10⁶ cells per sample were prepared from the transformation cell pools highly expressing human PD-L1, and antibodies were serially diluted at a constant dilution rate and reacted with the prepared cells at 4° C. for 20 minutes. Then, the cells were washed three times with PBS (#LB001-02, Welgene) containing 2% fetal bovine serum and reacted at 4° C. for 20 minutes with an anti-human IgG antibody (#FI-3000, Vectorlabs) conjugated with a FITC (fluorescein isothiocyanate) fluorescent substance. Then, the cells were subjected to the same washing process as above and then suspended in 0.5 ml of PBS containing 2% FBS (#26140-079, Thermo Fisher) with an FACSCanto II flow cytometer (BD Biosciences, USA) as a flow cytometer (Table 11).

T2 sequence (Q9NZQ7 19-238 limits assumed): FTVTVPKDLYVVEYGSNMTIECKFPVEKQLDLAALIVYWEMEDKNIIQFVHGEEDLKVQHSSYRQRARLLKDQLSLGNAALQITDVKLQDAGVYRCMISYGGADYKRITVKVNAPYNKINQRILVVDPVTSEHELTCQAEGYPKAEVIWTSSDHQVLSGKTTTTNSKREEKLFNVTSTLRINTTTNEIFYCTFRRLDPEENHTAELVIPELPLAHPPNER
T4 sequence (Q9NZQ7 19-238 limits assumed): as above
mouse PD-L1 protein, sequence (Q9EP73 19-238 limits assumed): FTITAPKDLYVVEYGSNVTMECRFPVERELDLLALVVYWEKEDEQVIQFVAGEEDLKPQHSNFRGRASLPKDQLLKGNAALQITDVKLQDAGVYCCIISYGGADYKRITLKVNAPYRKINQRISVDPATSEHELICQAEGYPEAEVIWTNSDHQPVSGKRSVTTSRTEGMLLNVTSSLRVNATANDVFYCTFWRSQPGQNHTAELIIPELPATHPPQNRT
T3 sequence (Q9NZQ7 19-290 limits assumed): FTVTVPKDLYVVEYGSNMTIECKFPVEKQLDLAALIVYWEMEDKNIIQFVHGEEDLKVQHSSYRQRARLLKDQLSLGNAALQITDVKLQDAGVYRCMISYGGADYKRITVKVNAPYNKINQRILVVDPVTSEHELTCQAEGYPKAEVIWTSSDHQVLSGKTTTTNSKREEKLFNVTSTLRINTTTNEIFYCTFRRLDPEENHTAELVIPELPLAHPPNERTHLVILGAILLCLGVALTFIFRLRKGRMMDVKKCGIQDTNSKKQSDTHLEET
T5 sequence (Q9NZQ7 other isoform, or with tags, fused parts or gaps limits assumed): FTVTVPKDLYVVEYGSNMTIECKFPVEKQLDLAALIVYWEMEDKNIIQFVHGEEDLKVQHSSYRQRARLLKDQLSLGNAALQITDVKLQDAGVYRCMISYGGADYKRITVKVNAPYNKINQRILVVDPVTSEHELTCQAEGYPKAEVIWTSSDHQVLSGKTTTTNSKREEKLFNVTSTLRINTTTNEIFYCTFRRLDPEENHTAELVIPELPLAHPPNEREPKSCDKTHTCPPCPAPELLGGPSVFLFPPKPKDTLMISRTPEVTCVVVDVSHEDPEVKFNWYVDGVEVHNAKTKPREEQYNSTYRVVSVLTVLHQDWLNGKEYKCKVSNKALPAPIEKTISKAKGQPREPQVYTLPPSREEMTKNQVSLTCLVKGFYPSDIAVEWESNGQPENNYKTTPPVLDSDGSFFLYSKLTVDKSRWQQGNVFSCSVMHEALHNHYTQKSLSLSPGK
T6 sequence (Q9NZQ7 19-290): as the sequence (Q9NZQ7 19-290 limits assumed) above

Binder	absorbance at 490 nm (M5)	absorbance at 490 nm (mouse PD-L1 protein)	binding result (mouse PD-L1 protein)	absorbance at 490 nm (M4)	absorbance at 490 nm (M6)	absorbance at 490 nm (ITGA6)	absorbance at 490 nm (M8)	absorbance at 490 nm (M3)	absorbance at 490 nm (M2)	absorbance at 490 nm (WT)	absorbance at 490 nm (M1)	Average *EC50 [nM], PD-1/PD-L1 blockade bioassay [1] [nM]	absorbance at 490 nm (M7)	IC50 (PD-L1-His) [nM]	EC50 (column 1차 EC50 [nM], first run; row 16E12, curve legend 16E12_Kappa) [2] [nM]	EC50 (column 2차 EC50 [nM], second run; row 16E12, curve legend 16E12_Kappa) [2] [nM]	Kd (PD-L1-hFc) [nM]	kon (PD-L1-hFc) [M⁻¹ s⁻¹]	Bmax [3]	Kd [3] [nM]
B1	2.9	0.1	no binding	0.4	2.9	0.5	2	0.9	2.5	2.9	2.6	1.1	3	–	–	–	–	–	–	–
B2	–	–	–	–	–	–	–	–	–	–	–	0.96	–	9.11	–	–	–	–	–	–
B3	2.9	1.8	–	0.7	2.9	0.5	3	1.1	2.7	2.5	2.8	1.74	3	–	–	–	–	–	–	–
B4	–	–	–	–	–	–	–	–	–	–	–	0.47	–	7.88	0.41	0.45	0.0149	268000	4140	4
B5	–	–	–	–	–	–	–	–	–	–	–	0.25	–	6.86	–	–	–	–	–	–
B6	2.5	2.5	–	0.5	2.5	0.5	2.6	0.9	2.4	2.5	2.4	1.61	2.6	–	–	–	–	–	–	–
B7	2.5	0.1	no binding	2.4	2.5	0.5	0.4	0.8	2.3	2.5	2.5	3.25	2.5	–	–	–	–	–	–	–
